Experiments:
Experiment in all cases: co-IP
[1] = target: T1, His-Ash1 (purified recombinant) (S. cerevisiae, UniProt P34233 1-588)
T1 sequence (looked up): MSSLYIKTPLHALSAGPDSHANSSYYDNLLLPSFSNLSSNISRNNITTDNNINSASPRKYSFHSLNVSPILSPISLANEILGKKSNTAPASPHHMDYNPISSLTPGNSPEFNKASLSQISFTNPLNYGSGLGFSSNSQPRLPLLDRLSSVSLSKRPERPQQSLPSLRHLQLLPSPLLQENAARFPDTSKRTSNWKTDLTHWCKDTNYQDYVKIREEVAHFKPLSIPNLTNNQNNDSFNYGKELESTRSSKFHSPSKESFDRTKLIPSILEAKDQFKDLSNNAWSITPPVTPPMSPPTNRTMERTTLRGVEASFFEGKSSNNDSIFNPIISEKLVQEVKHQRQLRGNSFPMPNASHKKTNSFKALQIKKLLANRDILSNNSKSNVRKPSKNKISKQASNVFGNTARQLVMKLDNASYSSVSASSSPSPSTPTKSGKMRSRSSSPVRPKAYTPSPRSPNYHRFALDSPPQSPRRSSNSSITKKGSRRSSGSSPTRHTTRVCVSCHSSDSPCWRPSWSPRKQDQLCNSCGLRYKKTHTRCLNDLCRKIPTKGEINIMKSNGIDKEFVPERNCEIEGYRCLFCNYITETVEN

[2] = target: T2, His-Ash1 phosphorylated by Tpk2-CBP (S. cerevisiae, UniProt P34233 1-588, phosphorylated by Tpk2-CBP at S149 and S388)
T2 sequence (looked up): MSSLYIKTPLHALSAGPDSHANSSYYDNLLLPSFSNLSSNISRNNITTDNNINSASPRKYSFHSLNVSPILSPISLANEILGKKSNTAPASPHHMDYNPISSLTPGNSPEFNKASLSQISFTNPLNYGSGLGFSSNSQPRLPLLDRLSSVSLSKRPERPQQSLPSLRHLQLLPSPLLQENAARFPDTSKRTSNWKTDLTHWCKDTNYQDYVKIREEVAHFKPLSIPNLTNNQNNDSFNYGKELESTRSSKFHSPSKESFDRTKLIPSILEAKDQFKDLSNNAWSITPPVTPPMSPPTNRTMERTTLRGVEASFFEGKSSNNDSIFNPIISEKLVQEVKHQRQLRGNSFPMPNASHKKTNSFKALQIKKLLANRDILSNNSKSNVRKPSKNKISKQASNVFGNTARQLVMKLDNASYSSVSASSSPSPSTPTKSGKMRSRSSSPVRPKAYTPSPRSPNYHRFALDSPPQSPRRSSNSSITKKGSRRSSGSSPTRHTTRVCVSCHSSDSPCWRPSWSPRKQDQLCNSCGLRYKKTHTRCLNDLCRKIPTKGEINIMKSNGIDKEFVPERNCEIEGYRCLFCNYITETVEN

[3] = target: T3, His-Ash1-2SA (Ash1-S149A S388A) (S. cerevisiae, UniProt P34233 1-588, S149A | S388A)
T3 sequence (looked up): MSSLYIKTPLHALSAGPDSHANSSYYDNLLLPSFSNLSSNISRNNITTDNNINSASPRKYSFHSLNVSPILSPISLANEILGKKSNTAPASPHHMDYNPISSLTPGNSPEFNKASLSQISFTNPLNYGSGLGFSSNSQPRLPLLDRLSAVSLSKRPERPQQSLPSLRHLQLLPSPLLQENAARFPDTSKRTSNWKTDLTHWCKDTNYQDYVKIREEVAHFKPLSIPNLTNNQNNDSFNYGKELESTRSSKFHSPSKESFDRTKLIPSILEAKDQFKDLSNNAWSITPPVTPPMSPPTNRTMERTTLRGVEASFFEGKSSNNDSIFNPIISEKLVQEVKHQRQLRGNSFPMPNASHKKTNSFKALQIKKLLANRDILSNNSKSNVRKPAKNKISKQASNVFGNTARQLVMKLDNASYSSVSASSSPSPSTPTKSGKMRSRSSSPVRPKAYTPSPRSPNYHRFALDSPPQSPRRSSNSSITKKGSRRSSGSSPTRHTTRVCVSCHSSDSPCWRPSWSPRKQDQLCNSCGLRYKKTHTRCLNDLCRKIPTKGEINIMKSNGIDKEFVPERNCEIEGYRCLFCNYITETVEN

Measured: binding result

B1: Ubp8-FLAG (purified recombinant) (enzyme, S. cerevisiae, UniProt P50102 1-471, looked up)
chain: MSICPHIQQVFQNEKSKDGVLKTCNAARYILNHSVPKEKFLNTMKCGTCHEINSGATFMCLQCGFCGCWNHSHFLSHSKQIGHIFGINSNNGLLFCFKCEDYIGNIDLINDAILAKYWDDVCTKTMVPSMERRDGLSGLINMGSTCFMSSILQCLIHNPYFIRHSMSQIHSNNCKVRSPDKCFSCALDKIVHELYGALNTKQASSSSTSTNRQTGFIYLLTCAWKINQNLAGYSQQDAHEFWQFIINQIHQSYVLDLPNAKEVSRANNKQCECIVHTVFEGSLESSIVCPGCQNNSKTTIDPFLDLSLDIKDKKKLYECLDSFHKKEQLKDFNYHCGECNSTQDAIKQLGIHKLPSVLVLQLKRFEHLLNGSNRKLDDFIEFPTYLNMKNYCSTKEKDKHSENGKVPDIIYELIGIVSHKGTVNEGHYIAFCKISGGQWFKFNDSMVSSISQEEVLKEQAYLLFYTIRQVN
binds: [1] | [2] | [3]
